From patent US20120315277A1, “Compositions and Methods for the Therapy and Diagnosis of Influenza” (priority 2011, published 2012)
Positions count from the first letter of the chain named.

T1: M2 protein of influenza A/Fort Worth/1/50 (H1N1), expressed on 293 cells (influenza A virus A/Fort Worth/1/50 …)
T1 chain: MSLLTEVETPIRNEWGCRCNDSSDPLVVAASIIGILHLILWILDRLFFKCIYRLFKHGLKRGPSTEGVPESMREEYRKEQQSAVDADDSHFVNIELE

B1: 3252_C13 (antibody, V domains shown)
VH: QVQLQESGPGLVKPSETLSLTCTVSGASISSDYWSWIRLPPGKGLEWIGYIYNRGSTKYTPSLKSRVTISLDTAENQFSLRLRSVTAADTAIYYCARHVGGHTYGIDYWGQGTLVTVSS
VL: DIQMTQSPSSLSASVGDRVTITCRASQSISNYLNWYQHKPGEAPKLLNYAASSLQSGVPSRFSASGSGTDFTLTISSLQPEDFATYYCQQSYNTPITFGQGTRLEIK
B2: 3362_B11 (antibody, V domains shown)
VH: QVQLQASGPGLVKPSETLSLTCTVSGDSITSGAYYWTWIRQHPGKGLEWIGYIYYSGNTYYNPSLKSRVTISLDTSKNQFSLKVNSVTAADTAVYYCARAASTSVLGYGMDVWGQGTTVTVSS
VL: B1 VL with N31R, H38Q, K39E, E42K, N48V, A64G, N93S, I96L
B3: 3420_I23 (antibody, V domains shown)
VH: QVQLQESGPGLVKPSETLSVTCKVSGDSISSYSWSWIRQPPGKGLEWVGYLYYSGSTKYNPSLKSRTTISVDTSTNQLSLKLSFVTAADTAVYFCARTGSESTTGYGMDVWGQGTTVTVSS
VL: B1 VL with N31T, H38Q, E42K, N48I, Q55H, A64G, T72A, N93S, T94P
B4: 3255_J06 (antibody, V domains shown)
VH: B1 VH with I92V
VL: B1 VL with T74S, S77G, Q100P
B5: 3260_D19 (antibody, V domains shown)
VH: DMQLVESGGGLVPPGGSLRLSCAASGFSVSDNYINWVRQAPGKGLDWVSVFYSADRTSYADSVKGRFTVSSHDSKNTVYLQMNSLRAEDTAVYYCARVQKSYYGMDVWGQGTTVTVSS
VL: GIQMTQSPSSLSASVGDRVTITCRASQSISRYLNWYLQKPGKAPKLLISGASSLQSGVPSRFSGTGSGTEFTLTISSLQPEDFATYYCQQTFSIPLFGQGTKVEIK
B6: 3242_P05 (antibody, V domains shown)
VH: B5 VH
VL: B5 VL
B7: 3253_P10 (antibody, V domains shown)
VH: QVQLQESGPGLLKPSDTLALTCTVSGGSITSDYWSWIRQPPGRGLDWIGFFYNGGSTKYNPSLKSRVTISADTSKNQLSLKLTSVTAADTGVYYCARHDAKFSGSYYVASWGQGTRVTVSS
VL: DIQMTQSPSSLSASVGDRVTISCRASQSISTYLNWYQQQPGKAPKVLISGATDLQSGVPSRFSGSGSGTDFTLTISSLQPEDFATYYCQQSYNTPLIFGQGTKLEIK
B8: 3244_I10 (antibody, V domains shown)
VH: B7 VH
VL: B7 VL with S49F, D53N
B9: 3243_J07 (antibody, V domains shown)
VH: B7 VH with A100V
VL: B7 VL with D53N
B10: 3248_P18 (antibody, V domains shown)
VH: QVQLQESGPGLVKPSETLSLTCTVSGGSISAYHWSWIRQPPGKGLEWIGHIFDSGSTYYNPSLKSRVTISLDASKNQLSLRLTSVTASDTAIYYCARPLGSRYYYGMDVWGQGTTVTVSS
VL: DIQMTQSPSSLSASVGDRVTITCRASQSISRYLNWYQQKPGKAPKLLIYGASTLQNGAPSRFSGSGSGTDFTLTISSLQPEDSATYLCQQSYSVPAFGGGTKVEVK
B11: 3241_G23 (antibody, V domains shown)
VH: QVQLQQSGPGLVKPSQTLSLTCTVSGGPVSGGGYSWNWIRQRPGQGLEWVGFMFHSGSPRYNPTLKSRITISVDTSKNLVSLKLSSVTAADTAVYFCARVGQMDKYYAMDVWGQGTTVTVSS
VL: DIQMTQSPSSLSSSVGDRVTITCRASQSIGAYVNWYQQKAGKAPQVLIFGASNLQSGVPSRFSGSGSGTDFTLTISSLQPEDFATYFCQQTYSTPITFGQGTRLEIK
B12: 3259_J21 (antibody, V domains shown)
VH: QVQLQESGPRVVRPSETLSLTCTVSGGSISSYNWIWIRQPPGKGLEWIGHIYDYGRTFYNSSLQSRPTISVDASKNQLSLRLTSVTASDTAVYYCARPLGILHYYAMDLWGQGTTVTVSS
VL: DIQMTQSPLSVSVSVGDRVTIACRASQSIDKFLNWYQQKPGKAPKLLIYGASNLHSGAPSRFSASGSGTDFTLTITNIQTEDFATYLCQQSFSVPAFGGGTKVEIK
B13: 21B15 (antibody, V domains shown)
VH: QVQLQESGPGLVKPSETLSLTCTVSGSSISNYYWSWIRQSPGKGLEWIGFIYYGGNTKYNPSLKSRVTISQDTSKSQVSLTMSSVTAAESAVYFCARASCSGGYCILDYWGQGTLVTVS
VL: DIQVTQSPSSLSASVGDRVTITCRASQNIYKYLNWYQQRPGKAPKGLISAASGLQSGVPSRFSGSGSGTDFTLTITSLQPEDFATYYCQQSYSPPLTFGGGTRVDIK
B14: TCN-032 Fab (Fab, V domains shown)
VH: B13 VH
VL: B13 VL with V4M, D105E
B15: 3139_P23 (antibody, V domains shown)
VH: QVQLQESGPRLVKPSESLSLTCTVSGGSISNSFWGWIRQPPGEGLEWIGYVYNSGNTKYNPSLKSRVTISRDTSKSQLYMKLRSVTAADTAVYYCARHDDASHGYSISWGHGTLVTVSS
VL: DIQMTQSPSSLSASVGDRVTITCRASQTISTYLNWYQQKSGKAPKLLIYAASGLQSGVPSRFSGSGSGTDFTLTISSLQPEDFATYFCQQSYNTPLTFGQGTKVEIK
B16: TCN-031 Fab (Fab, V domains shown)
VH: EVQLVESGGGLVQPGGSLRISCAASGFTVSSNYMSWVRQAPGKGLEWVSVIYSGGSTYYADSVKGRFSFSRDNSKNTVFLQMNSLRAEDTAVYYCARCLSRMRGYGLDVWGQGTTVTVS
VL: DIQMTQSPSSLSASVGDRVTITCRTSQSISSYLNWYQQKPGKAPKLLIYAASSLQSGVPSRFSGSGSGTDFTLTISGLQPEDFATYYCQQSYSMPAFGQGTKLEIK
B17: 3245_O19 (antibody, V domains shown)
VH: EVQLVESGGGLVQPGGSLRLSCTASGLSVSSTYMNWVRQAPGKGLEWVSVFYSETRTYYADSVKGRFTVSRHNSNNTLYLQMNSLRVEDTAVYYCARVQRLSYGMDVWGQGTTVTVSS
VL: DIQMTQSPSSLSASVGDRVTITCRASQSISTYLNWYQKRPGKAPKLLVYGASTLQSGVPSRFSGSGSGTDFTLTIASLQPEDSATYYCQQTYSIPLFGQGTRLEIK
B18: 3244_H04 (antibody, V domains shown)
VH: B17 VH with V87A
VL: B17 VL with T53S, T85V
B19: 3136_G05 (antibody, V domains shown)
VH: QVQLQESGPGLVKPSETLSLTCSVSGGSISSDFWSWIRQPPGKGLEWIGYVYNRGSTKYSPSLKSRVTISADMSKNQFSLNMSSVTAADTAVYYCAKNGRSSTSWGIDVWGKGTTVTVSS
VL: DIQMTQSPSSLSASVGDRLTITCRASQSISTYLHWYQQKPGKAPKLLIYAASSLQSGVPSRFSGSRSGTDFTLTISSLQPDDFATYYCQQSYSPPLTFGPGTKVDMK

Key:
[1] = target: M2 protein on influenza A/Puerto Rico/8/34 (H1N1) virus particles (influenza A virus A/Puerto Rico/8/34 (H1N1)) (UniProt P06821); assay: FAb fragments on whole PR8 virus
[2] = target: M2 protein on influenza A/Puerto Rico/8/34 (H1N1) virus particles (influenza A virus A/Puerto Rico/8/34 (H1N1)) (UniProt P06821); assay: SPR, Fab on influenza virus (A/Puerto Rico/8/34)
[3] = system: M2 (A/Hong Kong/483/97) expressed on CHO cells; assay type: binding, influenza A virus
[4] = system: Influenza A (A/Puerto Rico/8/34) virus; assay type: binding, influenza A virus H1N1
[5] = target: T1, M2 protein of influenza A/Fort …; assay: cell staining images, 293-HEK cells stably expressing M2
[6] = target: T2, M2 protein on influenza A/Puerto Rico/8/34 (H1N1) virus particles (influenza A virus A/Puerto Rico/8/34 …, UniProt P06821 1-97); assay: FAb fragments on whole PR8 virus
[7] = target: T2, M2 protein on influenza A/Puerto …; assay: SPR, Fab on influenza virus (A/Puerto Rico/8/34)

| Molecule | FACS M2-HK MFI [3] | Virus ELISA OD A450 [4] | further results |
| --- | --- | --- | --- |
| cH14C2 Fab |  |  | Kd [1]: 4000 nM; koff [1]: 0.00286 s⁻¹; kon [1]: 500 M⁻¹ s⁻¹; Kd [2]: 4000 nM; koff [2]: 0.0018 s⁻¹; kon [2]: 500 M⁻¹ s⁻¹ |
| B1 | 449 |  |  |
| B2 | 218 | 1.83 |  |
| B3 | 112 |  |  |
| B4 | 442 |  |  |
| B5 | 846 | 2.46 |  |
| B6 | 596 | 0.50 |  |
| B7 | 43 | 0.50 |  |
| B8 | 434 | 3.01 |  |
| B9 | 131 | 2.94 |  |
| B10 | 967 | 0.56 |  |
| B11 | 1697 | 3.02 |  |
| B12 | 1673 | 2.40 |  |
| B13 |  |  | binding result [5]: binds |
| B14 |  |  | Kd [6]: 3 nM; koff [6]: 0.0023 s⁻¹; kon [6]: 740000 M⁻¹ s⁻¹; Kd [7]: 3.2 nM; koff [7]: 0.0023 s⁻¹; kon [7]: 740000 M⁻¹ s⁻¹ |
| B15 | 110 | 1.02 |  |
| B16 |  |  | Kd [6]: 14 nM; koff [6]: 0.014 s⁻¹; kon [6]: 1e+06 M⁻¹ s⁻¹; Kd [7]: 14 nM; koff [7]: 0.014 s⁻¹; kon [7]: 1e+06 M⁻¹ s⁻¹ |
| B17 | 919 | 3.51 |  |
| B18 | 963 | 3.31 |  |
| B19 | 109 |  |  |
